For one data set, the system named is soybean seeds. The data set can be described thus: Free amino acid concentration in seeds of soybean transformed with threonine deaminase constructs (TCA extraction, OPA HPLC, fluorescence). Format: in vivo. To be noted: transformed soybean plants. As for the experimental part: The concentration of free isoleucine in seeds was determined by crushing approximately 50 mg of seed, placing the crushed material in a centrifuge vial, and then weighing. One mL of 5% trichloroacetic acid was added to each sample vial. The samples were mixed, using a vortex mixer, at room temperature for 15 minutes. The samples were then spun in a microcentrifuge for 15 minutes at 14,000 rpm. Some of the supernatant was then removed, placed in a HPLC vial and sealed. Samples were kept at 4° C. prior to analysis. A single seed analysis was performed on all R1 soybean seed, with 5 seeds per event, and one injection per seed. For subsequent generations representing the R2 and R3 seeds, a bulk assay having 10 seeds for each event, and one injection per event was used. The samples were analyzed using the Agilent Technologies 1100 series HPLC system. A 0.5 μL aliquot of the sample was derivatized with 2.5 μL of OPA (o-phthalaldehyde and 3-mercaptopropionic acid in borate buffer, Hewlett-Packard PN 5061-3335) reagent in 10 μl of 0.4 N borate buffer pH 10.2 (Hewlett-Packard, PN 5061-3339). The derivative was injected onto an Agilent Technologies Eclipse® XDB-C18 3.5 μm, 4.6×75 mm at 2 mL/min flow rate. […] Isoleucine concentrations were measured using fluorescence detection (excitation at 340 nm, emission at 450 nm) and values were calculated from a standard curve ranging from 10 to 800 μg/mL. […]

Data set [1] has as its system E. coli threonine deaminase. The data set can be described thus: Steady state kinetic analysis of E. coli ilvA threonine deaminase variants, continuous assay of α-ketobutyrate at 230 nm, with and without L-isoleucine. It is filed as biochemical. The following applies: for Km: E. coli ilvA TD expressed in E. coli, crude extract, pH 7.5, read-out: Km^Thr; for IC50: inhibition of TD activity by L-isoleucine. As for the experimental part:
Before conducting further transformation experiments using the isolated ilvA alleles in transgenic plants, each allele was over-expressed in E. coli to determine its kinetic parameters. Kinetics data on threonine deaminases containing various mutations, and a comparison to data available for threonine deaminases from Arabidopsis, are provided in Table 4. The E. coli ilvA481 variants were subcloned into pSE380 (Invitrogen, Carlsbad, Calif.) and expression was induced with 0.2 mM IPTG at 37° C. for 3 hours. Expression of the E. coli alleles was high and fairly consistent as visualized by SDS-PAGE.
The effects of amino acid substitutions at Leu481 in ilvA were assessed by steady state kinetic analysis in the presence and absence of L-isoleucine. Threonine deaminase polypeptides for use in in vitro kinetics studies were extracted from E. coli cells in assay buffer containing 50 mM potassium phosphate (pH7.5), 1 mM dithiothreitol (DTT), and 0.5 mM ethylenediamine-tetraacetate. A continuous assay method was employed to monitor the formation of α-ketobutyrate directly at 230 nm (ε230 (pH7.5)=540 M^−1cm^−1 whereas threonine absorption was negligible (˜1%)). The assay was initiated by adding 20 μl of crude extract diluted 1:20 v/v to the assay vessel containing L-threonine (between 2.5 mM and 50 mM) in a final volume of 1 mL. For L-isoleucine inhibition, L-isoleucine was added between 0 mM and 20 mM. The kinetic parameters were determined by fitting the data points to the equations using GraFit 4.0 software (Erithacus Software, Surrey, UK). For comparison, the kcat values of L481 alleles were normalized to the kcat value for the wild type IlvA enzyme. Enzymes represented in FIG. 7 are: wild type E. coli threonine deaminase (circles), L481Y TD enzyme (diamonds), L481F TD enzyme (triangles), and the L481T TD enzyme (squares). Table 4 also summarizes the kinetic parameters of the variant threonine deaminase enzymes produced by the various E. coli ilvA alleles.

The target in data set [2] is T1, Arabidopsis threonine deaminase (Arabidopsis thaliana, UniProt Q9ZSS6).
T1 sequence (Q9ZSS6 92-592): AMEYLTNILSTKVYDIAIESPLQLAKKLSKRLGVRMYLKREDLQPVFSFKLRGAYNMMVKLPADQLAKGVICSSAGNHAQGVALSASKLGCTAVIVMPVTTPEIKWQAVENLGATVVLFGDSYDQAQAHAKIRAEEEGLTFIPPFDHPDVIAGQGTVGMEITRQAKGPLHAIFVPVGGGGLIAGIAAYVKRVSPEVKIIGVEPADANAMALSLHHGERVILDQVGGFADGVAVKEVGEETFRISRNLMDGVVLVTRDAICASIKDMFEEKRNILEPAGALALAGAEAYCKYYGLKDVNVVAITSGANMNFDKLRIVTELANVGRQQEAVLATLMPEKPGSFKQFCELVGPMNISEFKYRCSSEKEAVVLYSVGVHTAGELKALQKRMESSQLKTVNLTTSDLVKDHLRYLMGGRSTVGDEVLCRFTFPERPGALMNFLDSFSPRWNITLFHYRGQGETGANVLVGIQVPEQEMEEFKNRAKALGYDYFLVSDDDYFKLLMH
The data set can be described thus: Kinetics data for Arabidopsis threonine deaminases (comparison in Table 4, FIG. 6). It is filed as biochemical. To be noted: initial velocity vs threonine concentration.

Here are results for seven molecules from patent publication US20050289668A1, “Plants with increased levels of one or more amino acids” (priority 2003, published 2005).

Where a chain is given by its changes, count along the chain named. Names may count otherwise.

As to “ilvA219: mutagenized E. coli threonine deaminase gene containing the L447F mutation”, the “free isoleucine concentration in the seed” value in the data set with soybean seeds was > 600 µg/g.
Turning to “ilvA466: mutagenized E. coli threonine deaminase gene containing the L481F mutation”, the “free isoleucine concentration in the seed” value in the data set with soybean seeds is > 1300 µg/g.

B1: L481K: E. coli threonine deaminase, Leu at position 481 replaced with Lys (protein, listed as Escherichia coli)
chain: MADSQPLSGAPEGAEYLRAVLRAPVYEAAQVTPLQKMEKLSSRLDNVILVKREDRQPVHSFKLRGAYAMMAGLTEEQKAHGVITASAGNHAQGVAFSSARLGVKALIVMPTATADIKVDRLRGFGGEVLLHGANFDEAKRKAIELSQQQGFTWVPPFDHPMVIAGQGTLALELLQQDAHLDRVFVPVGGGGLAACVAVLIKQLMPQIKVIAVEAEDSACLKAALDAGHPVDLPRVGLFAEGVAVKRIGDETFRLCQEYLDDIITVDSDAICAAMKDLFEDVRAVAEPSGALALAGMKKYIALHNIRGERLAHILSGANVNFHGLRYVSERCELVEQREALLAVTIPEEKGSFLKFCQLLGGRSVTEFNYRFADAKNACIFVGVRLSRGLEERKEILQMLNDGGYSVVDLSDDEMAKLHVRYMVGGRPSHPLQERLYSFEFPESPGALLRFLNTLGTYWNISLFHYRSHGTDYGRVLAAFEKGDHEPDFETRLNELGYDCHDETNNPAFRFFLAG
On to B1, for which, in data set [1] (expressed in E. coli), the enzyme activity result was “poor enzyme activity”.

B2: L481M: E. coli threonine deaminase, Leu at position 481 replaced with Met (protein, listed as Escherichia coli)
chain: B1 chain with K481M
For the molecule B2, in data set [1], the Km is 6.4 mM and half-maximal inhibition (IC50) required 100 µM.

B3: L447F (ilvA219): E. coli threonine deaminase, Leu at position 447 replaced with Phe (protein, listed as Escherichia coli)
chain: B1 chain with L447F, K481L
Turning to B3, the “cooperativity in substrate binding” value in data set [1] (initial velocity vs threonine concentration) is “negative cooperativity”.

B4: L481V: E. coli threonine deaminase, Leu at position 481 replaced with Val (protein, listed as Escherichia coli)
chain: B1 chain with K481V
For the molecule B4, in data set [1], the Michaelis-Menten constant (Km) is 7.1 mM and the IC50 was 97 µM.

B5: Wild type Arabidopsis: wild type Arabidopsis threonine deaminase polypeptide (protein, UniProt Q9ZSS6 92-592, looked up)
Threonine dehydratase …: T1 sequence (Q9ZSS6 92-592)
B5: the “cooperativity in substrate binding” value in data set [2] is “independent activity”.
